In article PMC8799735, “Depletion of mitochondrial methionine adenosyltransferase α1 triggers mitochondrial dysfunction in alcohol-associated liver disease” (Nature Communications, 2022):

B1: Methionine adenosyltransferase α1 (MATα1), endogenous mouse (natural protein)
chain: not shown
notes: Methionine adenosyltransferase α1 (MATα1), mouse, endogenous; source: endogenous, mouse hepatocyte lysate, mouse liver whole lysates and cytosolic fractions, AML-12 lysate
B2: Methionine adenosyltransferase α1 (MATα1), endogenous human (natural protein)
chain: not shown
notes: Methionine adenosyltransferase α1 (MATα1), human, endogenous in hepatocytes and liver; source: endogenous, human hepatocyte lysate and human liver lysates (normal, ALD)

Tests used:
Settings in all cases: partners not purified
[1] = target: T1, Peptidyl-prolyl cis/trans isomerase NIMA-interacting 1 (PIN1), endogenous mouse (mouse (endogenous in mouse hepatocytes, …, UniProt Q9QUR7 1-165)); assay: co-IP; whole liver lysates of pair-fed and ethanol-fed mice (NIAAA model); IP with anti-PIN1 or anti-MATα1 antibodies, western blot against MATα1 or PIN1, densitometry
T1 construct: source: endogenous, mouse hepatocyte lysate, mouse liver whole lysates and cytosolic fractions, AML-12 lysate
T1 sequence (Q9QUR7 whole entry): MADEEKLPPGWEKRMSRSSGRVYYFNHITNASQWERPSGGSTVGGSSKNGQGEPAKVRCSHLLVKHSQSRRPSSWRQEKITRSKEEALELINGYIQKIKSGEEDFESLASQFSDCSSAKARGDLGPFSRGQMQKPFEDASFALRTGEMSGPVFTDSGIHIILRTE

[2] = target: T1, Peptidyl-prolyl cis/trans isomerase …; assay: co-IP; AML-12 cell lysates, control or ethanol (100 mM, 48 h); IP with anti-PIN1 or anti-MATα1 antibodies, western blot, densitometry
[3] = target: T2, Peptidyl-prolyl cis/trans isomerase NIMA-interacting 1 (PIN1), endogenous human (human (endogenous in human hepatocytes, …, UniProt Q13526 1-163)); assay: co-IP; human normal and end-stage cirrhotic ALD liver lysates; IP with anti-PIN1 or anti-MATα1 antibodies, western blot against MATα1 or PIN1, densitometry
T2 construct: source: endogenous, human hepatocyte lysate, human liver lysates and HepG2 lysate
T2 sequence (Q13526 whole entry): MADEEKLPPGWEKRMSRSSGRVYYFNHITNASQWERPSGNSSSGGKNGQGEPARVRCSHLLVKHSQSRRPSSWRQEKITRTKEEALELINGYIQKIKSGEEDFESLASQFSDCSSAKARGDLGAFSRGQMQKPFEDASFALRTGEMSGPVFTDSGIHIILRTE

Binder	fold of co-precipitated signal, ethanol-fed against pair-fed mouse livers [1] [fold]	fold of co-precipitated signal, ethanol-treated against control AML-12 cells [2] [fold]	fold of co-precipitated signal, alcoholic cirrhotic livers against normal human livers [3] [fold]
B1	2	3.5	–
B2	–	–	3.3
